Data taken from patent US20230348603A1 (VERSEAU THERAPEUTICS, published 2023).
Changes are numbered by the printed parent chain. Numbers in names are those of the source. One block for each binder: values may come before it.

Columns and labels:
[1] = target: T1, Cynomolgus Monkey VSIG4-L-His (cynomolgus monkey); assay: BLI, IgG on AHC sensor, antigen 100 nM
T1 construct: ECD with His tag; also called cyVSIG4-L; cyno VSIG4-L-His
T1 chain: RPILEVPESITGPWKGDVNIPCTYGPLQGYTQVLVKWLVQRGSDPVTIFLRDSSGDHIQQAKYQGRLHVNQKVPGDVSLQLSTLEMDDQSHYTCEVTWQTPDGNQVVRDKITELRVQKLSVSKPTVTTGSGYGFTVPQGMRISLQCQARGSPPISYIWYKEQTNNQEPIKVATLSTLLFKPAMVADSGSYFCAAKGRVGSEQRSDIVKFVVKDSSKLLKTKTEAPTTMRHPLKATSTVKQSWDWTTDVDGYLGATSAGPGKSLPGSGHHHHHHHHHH

Human VSIG4-L-His = target: T2, Human VSIG4-L-His (human, UniProt Q9Y279 20-283); assay: BLI, IgG on AHC sensor, antigen 100 nM
T2 construct: long isoform ECD with His tag; also called hVSIG4-L
T2 sequence: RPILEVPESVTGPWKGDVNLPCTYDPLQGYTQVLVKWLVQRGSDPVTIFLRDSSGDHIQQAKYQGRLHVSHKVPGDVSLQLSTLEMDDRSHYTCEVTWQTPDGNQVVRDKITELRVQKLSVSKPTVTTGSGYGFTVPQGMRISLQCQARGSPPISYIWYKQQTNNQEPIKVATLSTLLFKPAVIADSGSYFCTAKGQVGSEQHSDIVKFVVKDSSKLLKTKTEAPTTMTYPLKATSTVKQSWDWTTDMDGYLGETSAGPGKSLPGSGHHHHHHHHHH

KD relative to parental chimera [1]: 1.2 fold
KD relative to parental chimera (Human VSIG4-L-His): 1.1 fold
B1: h12A12.D humanized IgG4 (S228P) kappa (antibody, V domains shown)
VH: QVQMVQSGSELKKPGASVKVSCKASGYTFTNYWMHWVRQAPGQGLEWMGYINPSTGYTDYNQGFTGRFVFSADKSVSTAYLQISSLKAEDTAVYYCIRGSDYYGRDYWGQGTTVTVSS
VL: EIVMTQSPATLSLSPGERATLSCRASQDISNYLNWYQQKPGQALRLLIYYTSRRHTGIPARFSGSGSGTDYTLTISSLEPEDFAVYYCRQGNTLPWTFGGGTKLEIKR

KD relative to parental chimera [1]: 1.2 fold
KD relative to parental chimera (Human VSIG4-L-His): 1.1 fold
B2: h14D12.A humanized IgG4 (S228P) kappa (antibody, V domains shown)
VH: QIQLVQSGSELKKPGASVKVSCKASGYTFTNYGMNWVRQAPGQGLEWMGLINTYTGEPTYADGFTGRFVFSLDTSASTAYLQISSLKAEDTAVYFCARERIYGYLHYFDYWGQGTTVTVSS
VL: DVVMTQSPDSLAVSLGERATINCKASQSVDYDGDSYMNWYQQKPGQPPKLLIYAASNLESGVPDRFSGSGSGTDFTLTISSLQAEDVAVYYCQQSNEDPRTFGGGTKLEIKR

KD relative to parental chimera [1]: 1.3 fold
KD relative to parental chimera (Human VSIG4-L-His): 1 fold
B3: h14D12.B humanized IgG4 (S228P) kappa (antibody, V domains shown)
VH: QIQLVQSGAEVKKPGASVKVSCKASGYTFTNYGMNWVRQAPGQGLEWMGLINTYTGEPTYADKFQGRVTMTLDTSTSTAYMELSSLRSEDTAVYYCARERIYGYLHYFDYWGQGTTVTVSS
VL: B2 VL

KD relative to parental chimera [1]: 1.5 fold
KD relative to parental chimera (Human VSIG4-L-His): 1.4 fold
B4: h14D12.C humanized IgG4 (S228P) kappa (antibody, V domains shown)
VH: B3 VH with M70F, T76A, Y95F
VL: B2 VL with L58R

KD relative to parental chimera [1]: 0.6 fold
KD relative to parental chimera (Human VSIG4-L-His): 0.6 fold
B5: h12A12.E humanized IgG4 (S228P) kappa (antibody, V domains shown)
VH: QVQMVQSGAEVKKPGASVKVSCKASGYTFTNYWMHWVRQAPGQGLEWMGYINPSTGYTDYNQKFQGRVTMTADKSTSTAYMELSSLRSEDTAVYYCIRGSDYYGRDYWGQGTTVTVSS
VL: DIQMTQSPSSLSASVGDRVTITCQASQDISNYLNWYQQKPGKAPKLLIYYTSRLHSGVPSRFSGSGSGTDYTFTISSLQPEDIATYYCRQGNTLPWTFGGGTKLEIKR

KD relative to parental chimera [1]: 0.4 fold
KD relative to parental chimera (Human VSIG4-L-His): 0.4 fold
B6: h12A12.F humanized IgG4 (S228P) kappa (antibody, V domains shown)
VH: B1 VH with M48I, F70L, V76S
VL: B5 VL

KD relative to parental chimera [1]: 1 fold
KD relative to parental chimera (Human VSIG4-L-His): 0.7 fold
B7: h12A12.A humanized IgG4 (S228P) kappa (antibody, V domains shown)
VH: B5 VH
VL: B5 VL with P44L, Y87F

KD relative to parental chimera [1]: 0.5 fold
KD relative to parental chimera (Human VSIG4-L-His): 0.5 fold
B8: h12A12.C humanized IgG4 (S228P) kappa (antibody, V domains shown)
VH: B1 VH with M48I, F70L, V76S
VL: B5 VL with P44L, S56T

KD relative to parental chimera [1]: 0.7 fold
KD relative to parental chimera (Human VSIG4-L-His): 0.6 fold
B9: h12A12.B humanized IgG4 (S228P) kappa (antibody, V domains shown)
VH: B5 VH
VL: B5 VL with P44L, S56T

KD relative to parental chimera [1]: 1.1 fold
KD relative to parental chimera (Human VSIG4-L-His): 0.7 fold
B10: h12A12.G humanized IgG4 (S228P) kappa (antibody, V domains shown)
VH: B5 VH with M4L, K74T, A79V
VL: B5 VL

KD relative to parental chimera [1]: 1 fold
KD relative to parental chimera (Human VSIG4-L-His): 0.8 fold
B11: h12A12.H humanized IgG4 (S228P) kappa (antibody, V domains shown)
VH: B1 VH with M4L, K74T
VL: B5 VL

KD relative to parental chimera [1]: 0.7 fold
KD relative to parental chimera (Human VSIG4-L-His): 0.7 fold
B12: h14C05.B humanized IgG4 (S228P) kappa (antibody, V domains shown)
VH: QVQLVQSGSELKKPGASVKVSCKASGYTFTNYGMNWVRQAPGQGLEWMGSINTYTGEATYADGFTGRFVFSLDTSVNTAYLQISSLKAEDTAVYYCARGDYYGRGTWFAYWGQGTLVTVSS
VL: ETQVTQSPSSLSASVGDRVTITCRASQDVSTAVAWYQQKPGKAPKLLIYSASYRYPGVPSRFSGSGSGTDFTLTISSLQPEDFATYYCQQDYSSPWTFGGGTKLEIKR

KD relative to parental chimera [1]: 0.5 fold
KD relative to parental chimera (Human VSIG4-L-His): 0.6 fold
B13: h14C05.D humanized IgG4 (S228P) kappa (antibody, V domains shown)
VH: B12 VH
VL: ETVVTQSPATLSLSPGERATLSCRASQDVSTAVAWYQQKPGQAPRLLIYSASYRYPGIPARFSGSGSGTDFTLTISSLEPEDFAVYYCQQDYSSPWTFGGGTKLEIKR

KD relative to parental chimera [1]: 0.6 fold
KD relative to parental chimera (Human VSIG4-L-His): 0.6 fold
B14: h14C05.C humanized IgG4 (S228P) kappa (antibody, V domains shown)
VH: QVQLVQSGAEVKKPGASVKVSCKASGYTFTNYGMNWVRQAPGQGLEWMGSINTYTGEATYADKFQGRVTMTLDTSTNTAYMELSSLRSEDTAVYYCARGDYYGRGTWFAYWGQGTLVTVSS
VL: B12 VL

KD relative to parental chimera [1]: 0.9 fold
KD relative to parental chimera (Human VSIG4-L-His): 1 fold
B15: h14C05.H humanized IgG4 (S228P) kappa (antibody, V domains shown)
VH: B14 VH with D62Q, N77S, A79V
VL: B12 VL

KD relative to parental chimera [1]: 0.7 fold
KD relative to parental chimera (Human VSIG4-L-His): 0.8 fold
B16: h14C05.G humanized IgG4 (S228P) kappa (antibody, V domains shown)
VH: B12 VH with D62Q, N77S
VL: B12 VL

KD relative to parental chimera [1]: 0.7 fold
KD relative to parental chimera (Human VSIG4-L-His): 0.8 fold
B17: h14C05.A humanized IgG4 (S228P) kappa (antibody, V domains shown)
VH: B12 VH with Q1E, Q3M, V76A, Y95F
VL: B12 VL

KD relative to parental chimera [1]: 0.7 fold
KD relative to parental chimera (Human VSIG4-L-His): 0.6 fold
B18: h14C05.F humanized IgG4 (S228P) kappa (antibody, V domains shown)
VH: B12 VH with G63D, T65K
VL: B12 VL

KD relative to parental chimera [1]: 0.3 fold
KD relative to parental chimera (Human VSIG4-L-His): 0.5 fold
B19: h14C05.E humanized IgG4 (S228P) kappa (antibody, V domains shown)
VH: B14 VH
VL: B13 VL

KD relative to parental chimera [1]: 3.7 fold
KD relative to parental chimera (Human VSIG4-L-His): 1.2 fold
B20: h13H11.C humanized IgG4 (S228P) kappa (antibody, V domains shown)
VH: QIQLVQSGSELKKPGASVKVSCKASGYTFENFGMNWVRQAPGQGLEWMGWINTYTGEATYADGFTGRFVFSLDTSVSTAYLQISSLKAEDTAVYYCARDGGFRHFDVWGQGTTVTVSS
VL: DTQVTQSPSSLSASVGDRVTITCQTSTDIDDDMNWYQQKPGKAPKLLISEGNTLRTGVPSRFSSSGSGTDFTFTISSLQPEDIATYYCLQSDNLPLTFGGGTKLEIKR

KD relative to parental chimera [1]: 0.9 fold
KD relative to parental chimera (Human VSIG4-L-His): 2.5 fold
B21: h13H11.B humanized IgG4 (S228P) kappa (antibody, V domains shown)
VH: QIQLVQSGAEVKKPGASVKVSCKASGYTFENFGMNWVRQAPGQRLEWMGWINTYTGEATYADKFQGRVTFTLDTSASTAYMELSSLRSEDTAVYFCARDGGFRHFDVWGQGTTVTVSS
VL: B20 VL with D1E, T56P, S67Y

KD relative to parental chimera [1]: 1.7 fold
KD relative to parental chimera (Human VSIG4-L-His): 0.8 fold
B22: h13H11.D humanized IgG4 (S228P) kappa (antibody, V domains shown)
VH: B20 VH
VL: B20 VL with D30S, D31N, D32Y, T56P

KD relative to parental chimera [1]: 0.9 fold
KD relative to parental chimera (Human VSIG4-L-His): 1.2 fold
B23: h13H11.G humanized IgG4 (S228P) kappa (antibody, V domains shown)
VH: B20 VH with G63D, T65K
VL: B20 VL

KD relative to parental chimera [1]: 1 fold
KD relative to parental chimera (Human VSIG4-L-His): 2.6 fold
B24: h13H11.A humanized IgG4 (S228P) kappa (antibody, V domains shown)
VH: B20 VH
VL: B20 VL with D1E, T56P, S67Y

KD relative to parental chimera [1]: 1.1 fold
KD relative to parental chimera (Human VSIG4-L-His): 1.8 fold
B25: h13H11.F humanized IgG4 (S228P) kappa (antibody, V domains shown)
VH: B20 VH with G63D, T65K
VL: B20 VL with D1E, T56P, S67Y

KD relative to parental chimera [1]: 1.1 fold
KD relative to parental chimera (Human VSIG4-L-His): 1.4 fold
B26: h13H11.E humanized IgG4 (S228P) kappa (antibody, V domains shown)
VH: B21 VH with F70I, F95Y
VL: B20 VL with D30S, D31N, D32Y, T56P

KD relative to parental chimera [1]: 0.9 fold
B27: h13H11.H humanized IgG4 (S228P) kappa (antibody, V domains shown)
VH: B20 VH with G63D, T65K
VL: B20 VL with D30S, D31N, D32Y, T56P
